Results from patent US20190177376A1.

Target: human IgG (human)
Assay: ELISA, IgG coated on plate, detection with Strep-Tactin-HRP

Substance: domain B (from UniProt P38507 212-269)
- Kd: 3.1 nM
